B1: 29C12.1 ADC (conjugate)
VH: EVQLLESGGALVQPGGSLRLSCAASGFTFSSYAMNWVRQAPGKGLEWVSAISVGGDTYYADSVKGRFTISRDNSKNTLYLQMNSLRAEDTAVYYCAKDQVTMVRGVWYYYGLDVWGQGTTVTVSS
VL: DIVMIQSPLSLPVTPGEPASISCRSSQSLLHSNGNNYLDWYLQKPGQSPHLLISLGSNRTSGVPDRFSGSGSGTDFTLKISRVEAEDVGVYYCMQALQPPRRFGQGTKLEIKR
B2: 40D7.1 ADC (conjugate)
VH: EVQLLESGGALVQPGGSLRLSCAASGFTFSSYAMNWVRQAPGKGLEWVSAISVGGDTYYADSVKGRFTISRDNSKNTLYLQMNSLRAEDTAVYYCAKDQVTMVRGVWYYYGLDVWGQGTTVTVSS
VL: DIVMIQSPLSLPVTPGEPASISCRSSQSLLHSNGNNFLDWYLQKPGQSPHLLISLGSNRTSGVPDRLSGSGSGTDFTLKISRVEAEDVGIYYCMQALRPPRRFGQGTKLEIKR
B3: 33C7.1 ADC (conjugate)
VH: EVQLLESGGALVQPGGSLRLSCAASGFTFSSYAMNWVRQAPGKGLEWVSAISVGGDTYYADSVKGRFTISRDNSKNTLYLHVNSLSAEDSAVYYCAKDQVTLVRGVWYYYGLDVWGQGTTVTVSS
VL: VIVLIQSPLSLPVTPGEPASISCRSSQSLLHSNGNNYLDWYLQKPGQSPHLLISLGSNRTSGVPDRFSGSGSGTDFTLKISRVEAEDVGFYYCMQALQPPRRFGQGTKLEIKR
B4: 37B2.1 ADC (conjugate)
VH: EVQLLESGGALVQPGGSLRLSCAASGFTFSNYAMNWVRQAPGKGLEWVSAISVGGDTYYADSVKGRFTISRDNSKNTLYLHVNSLSAEDSAVYYCAKDQVTLVRGVWYYYGLDVWGQGTTVTVSS
VL: VIVLIQSPLSLPVTPGEPASISCRSSQSLLHSNGNNYLDWYLQKPGQSPHLLISLGSNRTSGVPDRFSGSGSGTDFTLKISRVEAEDVGFYYCMQALQPPRRFGQGTKLEIKR
B5: 35D2.1 ADC (conjugate)
VH: EVQLLESGGALVQPGGSLRLSCAASGFTFSSYAMNWVRQAPGKGLEWVSAISVGGGTYYADSVKGRFTISRDNSKNTLYLHVNSLRAEDTAVYYCAKDQVTMVRGVWYYYGLDVWGQGTTVTVSS
VL: VIVLIQSPLSLPVTPGEPASISCRSSQSLLHSNGNNYLDWYLQKPGQSPHLLISLGSNRTSGVPDRFSGSGSGTDFTLKISRVEAEDVGFYYCMQALQPPRRFGQGTKLEIKR
B6: 32B5.1 ADC (conjugate)
VH: EVQLLESGGALVQPGGSLRLSCAASGFTFSSYAMNWVRQAPGKGLEWVSAISVGGDTYYADSVKGRFTISRDNSKNTLYLHVNSLSAEDSAVYYCAKDQVTLVRGVWYYYGLDVWGQGTTVTVSS
VL: VIVLIQSPLSLPVTPGEPASISCRSSQSLLHSNGNNYLDWYLQKPGQSPHLLISLGSNRTSGVPDRFSGSGSGTDFTLKISRVEAEDVGFYYCMQALQPPRRFGQGTKLEIKR

This data set relates to H929. The data set is described as follows: CellTiter-Glo Luminescent Cell Viability Assay, H929. The settings on record: ADCs of hybridoma-derived antibodies. In kind it is cell-based, human. As for the experimental part: The ADCs were tested for the ability to target and kill BCMA-expressing myeloma cells. The CellTiter-Glo® Luminescent Cell Viability Assay is a homogeneous method to determine the number of viable cells in culture based on quantitation of the ATP present, which signals the presence of metabolically active cells. The CellTiter-Glo® Assay is applicable to cytotoxicity assays (see http://www.promega.com/products/cell-health-assays/cell-viability-assays/celltiter_glo-luminescent-cell-viability-assay/for more information). The cell viability assay was used to assess the relative killing capacity of various ADCs on various multiple myeloma cell lines and B-cell lines. The protocol provided in the Cell Titer-Glo kit (Promega G7572) was followed. […] The ADCs were diluted into a 10× stock to create 500 nM maytansine drug equivalents. […] 10 ul of the 10×ADC dilution series was added to the 90 ul of cells in media (triplicate wells). The highest concentration of ADC was approximately 50 nM maytansine drug equivalents, and the lowest concentration of ADC was approximately 50 pM maytansine drug equivalents. An isotype control ADC (an anti-streptavidin huIgG1 conjugated to MCC-DM1) was included, as well as a media-only control. The plates were incubated at 37° C., 5% CO2 for 96 hours. After incubation, 100 ul of the Substrate Solution (Promega G7572) was added to each well. Luminescence was read on an EnVision™ Multilabel reader (PerkinElmer) or Analyst HT plate reader (LJL Biosciences). The data was analyzed and graphed using GraphPad Prism™ to determine the relative efficacy of the ADCs on various cancer cell lines.
The 2A1CV5-MCC-DM1, 32B5-MCC-DM1 and 29C12-MCC-DM1 ADCs were tested for the ability to target and kill BCMA-expressing myeloma cells (H929). The CellTiter-Glo® Luminescent Cell Viability Assay is a homogeneous method to determine the number of viable cells in culture based on quantitation of the ATP present, which signals the presence of metabolically active cells. The CellTiter-Glo® Assay is applicable to cytotoxicity assays (see http://www.promega.com/products/cell-health-assays/cell-viability-assays/celltiter_glo-luminescent-cell-viability-assay/for more information). The cell viability assay was used to assess the relative killing capacity of various ADCs on various multiple myeloma cell lines and B-cell lines. The protocol provided in the Cell Titer-Glo kit (Promega G7572) was followed. […] The ADCs were diluted into a 10× stock to create 500 nM maytansine drug equivalents. […] 10 ul of the 10×ADC dilution series was added to the 90 ul of cells in media (triplicate wells). The highest concentration of ADC was approximately 50 nM maytansine drug equivalents, and the lowest concentration of ADC was approximately 50 pM maytansine drug equivalents. An isotype control ADC (an anti-streptavidin huIgG1 conjugated to MCC-DM1) was included, as well as a media-only control. The plates were incubated at 37° C., 5% CO2 for 96 hours. After incubation, 100 ul of the Substrate Solution (Promega G7572) was added to each well. Luminescence was read on an EnVision™ Multilabel reader (PerkinElmer) or Analyst HT plate reader (LJL Biosciences). The data was analyzed and graphed using GraphPad Prism™ to determine the relative efficacy of the ADCs on various cancer cell lines.
A general note: Cellular ATP, detected with luciferase, serves as a proxy for viable cell number.
Take B1: the “cytotoxicity to huBCMA-expressing myeloma target cells (H929)” value is given as “showed cytotoxicity”.
In the case of B2 it was “showed cytotoxicity”; in that of B3, “showed cytotoxicity”; in that of B4, “showed cytotoxicity”.
In the case of B5 it was “showed cytotoxicity”.
In the case of B6 it was “showed cytotoxicity”.

Values taken from patent US10220090B2, “BCMA Antigen binding proteins” (Amgen Inc., priority 2012, dated 2019).
